Measurements reported in paper PMC6155322.
Values joined by “and” are separate entries in the source; they are usually repeats but may differ in a detail not shown here. Equal entries are not always repeated.

Experiments:
[1] = target: pyruvate kinase M2 type (PKM2), human HK-2 cells (human (endogenous in HK-2)) (UniProt P14618); assay: cross-linking; glutaraldehyde chemical cross-linking of scramble siRNA, sirt3 siRNA transfected and TGFβ alone treated HK-2 cells; Western blot
[2] = target: pyruvate kinase M2 type (PKM2), mouse kidney (mouse (endogenous in kidney)) (UniProt P52480); assay: cross-linking; glutaraldehyde added to clarified kidney lysate (4 mg/mL; sodium phosphate buffer pH 7.3, 0.5% Triton X-100), 37 °C for 10 min, stopped with Tris; 5-20% SDS/PAGE and Western blotting; kidneys of control and diabetic CD-1 and C57Bl6 mice, scramble or sirt3 siRNA injected diabetic mice, DCA treated diabetic mice, KK/Ta-Ins2Akita mice and littermate controls

Chain of pyruvate kinase M2 type (PKM2), mouse kidney, P52480 1-531 (enzyme; other documents disagree on this pair) (P52480 whole entry): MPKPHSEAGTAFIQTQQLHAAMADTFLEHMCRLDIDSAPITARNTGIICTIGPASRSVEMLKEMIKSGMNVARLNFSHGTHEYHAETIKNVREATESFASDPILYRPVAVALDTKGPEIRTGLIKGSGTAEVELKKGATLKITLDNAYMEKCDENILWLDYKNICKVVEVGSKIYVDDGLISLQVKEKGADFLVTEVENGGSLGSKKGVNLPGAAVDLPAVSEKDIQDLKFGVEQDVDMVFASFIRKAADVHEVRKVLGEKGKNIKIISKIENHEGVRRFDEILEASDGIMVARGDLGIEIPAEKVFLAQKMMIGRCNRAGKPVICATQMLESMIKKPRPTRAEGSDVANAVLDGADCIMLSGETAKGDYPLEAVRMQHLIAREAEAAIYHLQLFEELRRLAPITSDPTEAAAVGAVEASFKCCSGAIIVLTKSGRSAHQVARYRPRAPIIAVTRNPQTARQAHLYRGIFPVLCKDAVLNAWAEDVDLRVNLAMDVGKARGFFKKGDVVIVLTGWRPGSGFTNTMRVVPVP
Chain of pyruvate kinase M2 type (PKM2), human HK-2 cells, P14618 1-531 (enzyme; other documents disagree on this pair) (P14618 whole entry): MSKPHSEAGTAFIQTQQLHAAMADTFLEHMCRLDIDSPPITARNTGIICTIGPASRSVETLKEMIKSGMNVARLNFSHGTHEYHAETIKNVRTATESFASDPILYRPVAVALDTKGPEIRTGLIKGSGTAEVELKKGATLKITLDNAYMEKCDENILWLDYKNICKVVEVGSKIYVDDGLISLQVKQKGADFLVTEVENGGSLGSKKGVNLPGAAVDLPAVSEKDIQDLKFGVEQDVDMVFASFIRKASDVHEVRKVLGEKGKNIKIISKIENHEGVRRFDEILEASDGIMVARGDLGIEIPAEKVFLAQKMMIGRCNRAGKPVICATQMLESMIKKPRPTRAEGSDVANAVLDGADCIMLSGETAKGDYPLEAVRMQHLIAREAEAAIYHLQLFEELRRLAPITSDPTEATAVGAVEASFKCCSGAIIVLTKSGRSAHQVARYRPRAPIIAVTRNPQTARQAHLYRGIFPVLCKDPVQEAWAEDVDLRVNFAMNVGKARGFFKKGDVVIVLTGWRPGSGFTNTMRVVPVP

stoichiometry N [1] | stoichiometry N [2] | Substance
2 |  | pyruvate kinase M2 type (PKM2), human HK-2 cells, P14618 1-531 (enzyme; other documents disagree on this pair)
 | 2 and 4 | pyruvate kinase M2 type (PKM2), mouse kidney, P52480 1-531 (enzyme; other documents disagree on this pair)
